Source: paper PMC10502629

Columns and labels:
[1] = target: SC-AaLS (SpyCatcher fused to the N-terminus of Aquifex aeolicus lumazine synthase) (Aquifex aeolicus); experiment: covalent SpyCatcher/SpyTag conjugation read by SDS-PAGE; purified SC-scaffolds incubated with ST-OVAT in conventional buffer without any enzyme (4 °C, 16 h in Figure 3e); conjugates purified by SEC, SDS-PAGE with Coomassie staining; reactivity kept after heating at 75 °C or 5 x …
[2] = target: SC-A0A4 (SpyCatcher fused to the N-terminus of the AaLS homologue A0A497XTC1 of Hydrogenivirga caldilitoris) (Hydrogenivirga caldilitoris); experiment: as above

“ST-OVAT (SpyTag fused to the N-terminus of ovalbumin T epitopes) (peptide)” showed a percent conjugated [1] of 100% and a percent conjugated [2] of 100%.
